Measurements reported in the supplement of paper PMC9732359.
± gives the uncertainty stated by the source.

Assay: protein stability index of a GFP-peptide fusion (yeast GPS) (PSI 1-4); higher = more stable; sorted into four equal gates, so the index is relative within each strain
How it was run: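 Plasmids isolated from each sorting gate were PCR-amplified and Illumina-sequenced, and barcodes assigned the reads to strains. The gates, four of equal size, were set by GFP/Cherry fluorescence ratio on mid-log cultures in leucine-free medium. These cultures were yeast carrying a pooled library of tiled 17-residue yeast protein peptides fused downstream of GFP on a plasmid that also expresses Cherry. The protein stability index is the sum of every gate's read frequency times its gate number.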

| Sequence | protein stability index (doa10∆) | protein stability index (san1∆) | protein stability index (ubr1∆) | protein stability index (pdr5∆) |
| --- | --- | --- | --- | --- |
| ADVYAKALEGKDLKEIL [RPP1B] | 3.45 ± 0.22 | 3.51 ± 0.14 | 3.36 ± 0.2 | – |
| NENDSQAIITERLVEFS [YIL149C/MLP2] | 3.2 ± 0.095 | 2.83 ± 0.087 | 2.87 ± 0.051 | 3.15 ± 0.085 |
| DYIKDEQRHLKRELKRA [RPT3] | 2.25 ± 0.058 | 1.98 ± 0.14 | 1.68 ± 0.037 | 2.06 ± 0.056 |
| LEEHKNHLDELQKKFVT [SMC1] | 2.88 ± 0.08 | 2.88 ± 0.059 | 2.91 ± 0.052 | 2.83 ± 0.11 |
| PFDDDEPPLSYEQHIEN [PRP8] | 2.42 ± 0.058 | 3.06 ± 0.07 | 2.31 ± 0.053 | 2.86 ± 0.092 |
| EDVVAISSRTFGQRAVL [RPS0A] | 3.3 ± 0.11 | 3.02 ± 0.085 | 3.1 ± 0.047 | 3.03 ± 0.056 |
| GSNNAQTSRGLFGNNNT [YGL172W/NUP49] | 3.24 ± 0.087 | 3.14 ± 0.046 | 3.16 ± 0.1 | 3.25 ± 0.074 |
| NVDGNIKIVYALTTIKG [RPS18A] | – | – | 1.23 ± 0.11 | 1.49 ± 0.18 |
| NLGRAVFWEIQSRVPTS [PRP8] | 2.05 ± 0.1 | 2.17 ± 0.092 | 2.4 ± 0.18 | 2.22 ± 0.17 |
| SKAQQKTAEQVAAERAA [RPL7A] | 2.84 ± 0.064 | 2.74 ± 0.054 | 2.68 ± 0.049 | 2.88 ± 0.052 |
| PRRFGKGSRQCRVCSSH [RPS29B] | 2.96 ± 0.061 | 2.97 ± 0.043 | 2.912 ± 0.029 | 3.06 ± 0.038 |
| PVFHKKAKTTKKVVLRL [RPL42A] | 2.95 ± 0.11 | 2.25 ± 0.094 | 1.98 ± 0.14 | 1.92 ± 0.091 |
| GGEKTVAALALLFAINS [SMC1] | 1.2 ± 0.078 | 1.12 ± 0.23 | 1.9 ± 0.14 | 1.27 ± 0.092 |
| LATAHIYLSRFLIKASV [SSN8] | 1.23 ± 0.042 | 1.31 ± 0.16 | 1.07 ± 0.055 | 1.34 ± 0.051 |
| KACKTADKLVNVTQNEQ [SRP68] | 3.02 ± 0.13 | 3 ± 0.073 | 3.07 ± 0.07 | 3.04 ± 0.095 |
| DILSQILYGLVDKGAIM [YJL039C/NUP192] | 2.87 ± 0.11 | 2.95 ± 0.19 | 2.79 ± 0.28 | 2.87 ± 0.25 |
| VNWLAYTYLYVRMLASP [BRR2] | 1.11 ± 0.14 | 1.31 ± 0.19 | 1.24 ± 0.1 | 1.14 ± 0.18 |
| YSIEMKPYSGKLLKVCL [ECM29] | 2.62 ± 0.077 | 2.51 ± 0.076 | 2.83 ± 0.069 | 2.33 ± 0.098 |
| KKNKRALPNIENDIIKL [BRR2] | 3.09 ± 0.054 | 3.23 ± 0.04 | 3.34 ± 0.037 | 3.36 ± 0.062 |
| SRLTLLLRALKTNEESA [PRP8] | 1.91 ± 0.056 | 1.84 ± 0.09 | 1.97 ± 0.044 | 1.58 ± 0.058 |
| AVPRDELGRSNYGMIAI [FAS1] | 2.97 ± 0.17 | 3.28 ± 0.071 | 3.33 ± 0.22 | 3.16 ± 0.15 |
| KTLCARAVANRTDATFI [RPT1] | 1.39 ± 0.12 | 1.26 ± 0.15 | 1.37 ± 0.18 | 1.37 ± 0.12 |
| DYNFKYGIPLEFYNEMH [PRP8] | 2.98 ± 0.08 | 1.78 ± 0.082 | 3.15 ± 0.083 | 3.08 ± 0.091 |
| QWMVSLFNNHLNGILAD [SNF2] | 1.39 ± 0.12 | 1.37 ± 0.14 | 1.2 ± 0.059 | 1.46 ± 0.11 |
| LCSMLQEASQVTFIFGE [MED11] | 2.06 ± 0.053 | 2.61 ± 0.055 | 2.56 ± 0.037 | 2.74 ± 0.048 |
| KEQADIYAKQQEQLKQM [ARP7] | 1.75 ± 0.065 | 1.78 ± 0.14 | 2.88 ± 0.066 | 2.25 ± 0.086 |
| VDPRIINSENDYSRKQL [NUT1] | 3.06 ± 0.072 | 2.78 ± 0.082 | 3.06 ± 0.056 | 3.38 ± 0.072 |
